In the Immune Epitope Database (IEDB):

How the values were obtained:
HLA-A*01:01 = experiment: IEDB peptide-MHC binding, purified MHC/direct/fluorescence; filed as Kd, often an IC50 or EC50 that approximates it; ≥ and ≤ were set here for values at or beyond the usual limits of such assays
HLA-A*02:01 [1] = experiment: as above
HLA-A*03:01 = experiment: as above
HLA-A*11:01 = experiment: as above
HLA-A*26:01 [2] = experiment: as above
HLA-A*31:01 = experiment: as above
HLA-A*69:01 [3] = experiment: as above
HLA-B*07:02 = experiment: as above
HLA-B*08:01 [4] = experiment: as above
HLA-B*15:01 = experiment: as above
HLA-B*15:02 = experiment: as above
HLA-B*35:01 [5] = experiment: as above
HLA-B*40:01 = experiment: as above
HLA-B*44:02 = experiment: as above
HLA-B*46:01 = experiment: as above
HLA-B*58:01 [6] = experiment: as above
HLA-B*48:01 = experiment: IEDB peptide-MHC binding, purified MHC/competitive/fluorescence; filed as Kd, often an IC50 or EC50 that approximates it; ≥ and ≤ were set here for values at or beyond the usual limits of such assays
HLA-A*02:03 = experiment: IEDB peptide-MHC binding, purified MHC/direct/fluorescence; filed as Kd, often an IC50 or EC50 that approximates it; ≥ and ≤ were set here for values at or beyond the usual limits of such assays; details: source organism: Zaire ebolavirus
HLA-A*02:12 = experiment: as above; details: source organism: Zaire ebolavirus
HLA-A*02:16 = experiment: as above; details: source organism: Zaire ebolavirus
HLA-A*02:19 = experiment: as above; details: source organism: Zaire ebolavirus
HLA-A*68:02 = experiment: as above; details: source organism: Zaire ebolavirus
HLA-C*14:02 [7] = experiment: as above
HLA-A*02:01 [8] = experiment: IEDB peptide-MHC binding, purified MHC/competitive/fluorescence; filed as Kd, often an IC50 or EC50 that approximates it; ≥ and ≤ were set here for values at or beyond the usual limits of such assays; details: source organism: Zaire ebolavirus
HLA-A*26:01 [9] = experiment: as above; details: source organism: Zaire ebolavirus
HLA-A*69:01 [10] = experiment: as above; details: source organism: Zaire ebolavirus
HLA-B*27:03 = experiment: as above; details: source organism: Zaire ebolavirus
HLA-B*35:01 [11] = experiment: as above
HLA-B*39:01 = experiment: as above; details: source organism: Zaire ebolavirus
HLA-B*27:05 = experiment: IEDB peptide-MHC binding, purified MHC/direct/fluorescence; filed as Kd, often an IC50 or EC50 that approximates it; ≥ and ≤ were set here for values at or beyond the usual limits of such assays
HLA-C*05:01 = experiment: as above; details: source organism: Salmonella enterica subsp. enterica serovar Typhi str. CT18
HLA-A*68:23 = experiment: IEDB peptide-MHC binding, purified MHC/competitive/fluorescence; filed as Kd, often an IC50 or EC50 that approximates it; ≥ and ≤ were set here for values at or beyond the usual limits of such assays
HLA-B*08:01 [12] = experiment: as above; details: source organism: Salmonella enterica subsp. enterica serovar Typhi
HLA-B*15:42 = experiment: as above
HLA-B*45:06 = experiment: as above
HLA-B*51:01 = experiment: as above; details: source organism: Salmonella enterica subsp. enterica serovar Typhi
HLA-B*83:01 = experiment: as above
HLA-C*06:02 = experiment: IEDB peptide-MHC binding, purified MHC/direct/fluorescence; filed as Kd, often an IC50 or EC50 that approximates it; ≥ and ≤ were set here for values at or beyond the usual limits of such assays; details: source organism: Entamoeba histolytica HM-1:IMSS
HLA-C*15:02 = experiment: as above; details: source organism: Entamoeba histolytica HM-1:IMSS
HLA-A*32:07 = experiment: IEDB peptide-MHC binding, purified MHC/competitive/fluorescence; filed as Kd, often an IC50 or EC50 that approximates it; ≥ and ≤ were set here for values at or beyond the usual limits of such assays
HLA-A*32:15 = experiment: as above
HLA-B*40:13 = experiment: as above
HLA-B*58:01 [13] = experiment: as above; details: source organism: Yersinia pestis Nepal516
HLA-C*14:02 [14] = experiment: as above; details: source organism: Yersinia pestis Nepal516
[15] = source organism: Yersinia pestis Antiqua
[16] = source organism: Yersinia pestis
[17] = source organism: Entamoeba histolytica HM-1:IMSS
[18] = source organism: Zaire ebolavirus
[19] = source organism: Vibrio vulnificus
[20] = source organism: Salmonella enterica subsp. enterica serovar Typhi
[21] = source organism: Escherichia coli
[22] = source organism: Escherichia coli O157:H7
[23] = source organism: Yersinia pestis Nepal516

FQLYSDLAH
Kd (HLA-A*01:01; [15]): ≥ 20 µM
Kd (HLA-A*02:01 [1]; [16]): 1.91 µM
Kd (HLA-A*03:01; [15]): ≥ 20 µM
Kd (HLA-A*11:01; [15]): ≥ 20 µM
Kd (HLA-A*26:01 [2]; [15]): ≥ 20 µM
Kd (HLA-A*31:01; [15]): ≥ 20 µM
Kd (HLA-A*69:01 [3]; [15]): ≥ 20 µM
Kd (HLA-B*07:02; [15]): ≥ 20 µM
Kd (HLA-B*08:01 [4]; [15]): ≥ 20 µM
Kd (HLA-B*15:01; [16]): 0.0682 µM
Kd (HLA-B*15:02; [15]): 0.0259 µM
Kd (HLA-B*35:01 [5]; [16]): 0.861 µM
Kd (HLA-B*40:01; [15]): ≥ 20 µM
Kd (HLA-B*44:02; [15]): ≥ 20 µM
Kd (HLA-B*46:01; [15]): 2.27 µM
Kd (HLA-B*58:01 [6]; [15]): ≥ 20 µM

KEFNGPAML
Kd (HLA-B*48:01; [17]): 0.439 µM

KVYWAGIEF
Kd (HLA-A*02:03): ≥ 20 µM
Kd (HLA-A*02:12): ≥ 20 µM
Kd (HLA-A*02:16): ≥ 20 µM
Kd (HLA-A*02:19): ≥ 20 µM
Kd (HLA-A*68:02): ≥ 20 µM
Kd (HLA-B*15:01; source organism: Ebola virus - Gabon (1994-1997)): 0.133 µM
Kd (HLA-C*14:02 [7]; [18]): 0.018 µM
Kd (HLA-A*02:01 [8]): ≥ 20 µM
Kd (HLA-A*26:01 [9]): ≥ 20 µM
Kd (HLA-A*69:01 [10]): ≥ 20 µM
Kd (HLA-B*27:03): ≥ 20 µM
Kd (HLA-B*35:01 [11]; [18]): 0.114 µM
Kd (HLA-B*39:01): ≥ 20 µM

LLTQSNAGF
Kd (HLA-A*01:01; [19]): ≥ 20 µM
Kd (HLA-A*03:01; [19]): ≥ 20 µM
Kd (HLA-A*11:01; [19]): ≥ 20 µM
Kd (HLA-A*26:01 [2]; [19]): ≥ 20 µM
Kd (HLA-A*31:01; [19]): ≥ 20 µM
Kd (HLA-A*69:01 [3]; [19]): ≥ 20 µM
Kd (HLA-B*07:02; [19]): ≥ 20 µM
Kd (HLA-B*08:01 [4]; [19]): ≥ 20 µM
Kd (HLA-B*15:01; [19]): 0.146 µM
Kd (HLA-B*15:02; source organism: Vibrio vulnificus CMCP6): 0.049 µM
Kd (HLA-B*27:05; [19]): ≥ 20 µM
Kd (HLA-B*35:01 [5]; [19]): 0.345 µM
Kd (HLA-B*40:01; [19]): ≥ 20 µM
Kd (HLA-B*44:02; [19]): ≥ 20 µM
Kd (HLA-B*46:01; [19]): ≥ 20 µM

MPFIATPPV
Kd (HLA-C*05:01): ≥ 20 µM
Kd (HLA-A*68:23; [20]): 0.0021 µM
Kd (HLA-B*08:01 [12]): 1.44 µM
Kd (HLA-B*15:42; [20]): ≥ 5 µM
Kd (HLA-B*35:01 [11]; [20]): ≤ 0.0001 µM
Kd (HLA-B*45:06; [20]): ≥ 5 µM
Kd (HLA-B*51:01): 0.567 µM
Kd (HLA-B*83:01; [20]): 0.0626 µM

RQQAIVDLL
Kd (HLA-B*48:01; source organism: Shigella flexneri 5 str. 8401): 0.153 µM

SMFERDFHF
Kd (HLA-A*02:01 [1]; [17]): 0.004 µM
Kd (HLA-A*69:01 [3]; [17]): ≥ 5 µM
Kd (HLA-C*06:02): 1.72 µM
Kd (HLA-C*14:02 [7]; [17]): 3.27 µM
Kd (HLA-C*15:02): ≥ 20 µM
Kd (HLA-A*32:07; [17]): 0.0093 µM
Kd (HLA-A*32:15; [17]): 0.0316 µM
Kd (HLA-B*15:42; [17]): ≥ 5 µM
Kd (HLA-B*40:13; [17]): 0.0028 µM
Kd (HLA-B*45:06; [17]): ≥ 5 µM
Kd (HLA-B*83:01; [17]): ≥ 5 µM

YLGTPNNTY
Kd (HLA-A*01:01; [21]): 0.284 µM
Kd (HLA-A*02:01 [1]; [22]): ≥ 20 µM
Kd (HLA-A*03:01; [22]): ≥ 20 µM
Kd (HLA-A*11:01; [22]): ≥ 20 µM
Kd (HLA-A*26:01 [2]; [22]): ≥ 20 µM
Kd (HLA-A*31:01; [22]): ≥ 20 µM
Kd (HLA-A*69:01 [3]; [22]): ≥ 20 µM
Kd (HLA-B*07:02; [22]): ≥ 20 µM
Kd (HLA-B*08:01 [4]; [22]): ≥ 20 µM
Kd (HLA-B*15:01; [21]): 0.137 µM
Kd (HLA-B*15:02; [22]): 0.0094 µM
Kd (HLA-B*27:05; [22]): ≥ 20 µM
Kd (HLA-B*35:01 [5]; [21]): 0.325 µM
Kd (HLA-B*40:01; [22]): ≥ 20 µM
Kd (HLA-B*44:02; [22]): ≥ 20 µM
Kd (HLA-B*46:01; [22]): ≥ 20 µM
Kd (HLA-B*58:01 [6]; [22]): ≥ 20 µM

YSLMSRYQF
Kd (HLA-A*32:07; [23]): 0.0258 µM
Kd (HLA-A*32:15; [23]): 0.0582 µM
Kd (HLA-A*68:23; [23]): 0.0295 µM
Kd (HLA-B*15:42; [23]): ≥ 5 µM
Kd (HLA-B*40:13; [23]): 0.0132 µM
Kd (HLA-B*45:06; [23]): ≥ 5 µM
Kd (HLA-B*58:01 [13]): 0.0162 µM
Kd (HLA-B*83:01; [23]): ≥ 5 µM
Kd (HLA-C*14:02 [14]): 0.043 µM
